Results as given in patent publication US20230265134A1.

Target: Ustekinumab lambda fusion light chain (human)
Test: LCMS of Fabs cleaved from IgG; 2 HC + 2 LC co-expressed in HEK293

% HC1-LC2 product: 0%
Substance: Panitumumab heavy chain, CH1 K147F S183K (from UniProt P01857 1-101)
